Data from patent US20140235490A1.

Tested on: SNAPtide (FITC/DABCYL), List Biological Laboratories product #521

BoNT/A complex (botulinum neurotoxin type A with neurotoxin associated proteins, Hall A strain)
Km of SNAPtide conversion, non-bead based assay (free toxin): non-bead based assay: typical Km=0.7 µM
Km of the immobilized enzyme against the free enzyme: 3.2-fold lower than for the free enzyme
